Positions count from the first letter of the chain named.
T1: hSEMA4D ECD-His (His-tagged human SEMA4D protein extracellular domain, Met22-Arg734) (human, UniProt Q92854 22-734)
T1 construct: Expressed in CHO-S cells, purified on Ni column; also called protein immunogen; immunogen A; not shown: His tag of the pCP vector
T1 sequence: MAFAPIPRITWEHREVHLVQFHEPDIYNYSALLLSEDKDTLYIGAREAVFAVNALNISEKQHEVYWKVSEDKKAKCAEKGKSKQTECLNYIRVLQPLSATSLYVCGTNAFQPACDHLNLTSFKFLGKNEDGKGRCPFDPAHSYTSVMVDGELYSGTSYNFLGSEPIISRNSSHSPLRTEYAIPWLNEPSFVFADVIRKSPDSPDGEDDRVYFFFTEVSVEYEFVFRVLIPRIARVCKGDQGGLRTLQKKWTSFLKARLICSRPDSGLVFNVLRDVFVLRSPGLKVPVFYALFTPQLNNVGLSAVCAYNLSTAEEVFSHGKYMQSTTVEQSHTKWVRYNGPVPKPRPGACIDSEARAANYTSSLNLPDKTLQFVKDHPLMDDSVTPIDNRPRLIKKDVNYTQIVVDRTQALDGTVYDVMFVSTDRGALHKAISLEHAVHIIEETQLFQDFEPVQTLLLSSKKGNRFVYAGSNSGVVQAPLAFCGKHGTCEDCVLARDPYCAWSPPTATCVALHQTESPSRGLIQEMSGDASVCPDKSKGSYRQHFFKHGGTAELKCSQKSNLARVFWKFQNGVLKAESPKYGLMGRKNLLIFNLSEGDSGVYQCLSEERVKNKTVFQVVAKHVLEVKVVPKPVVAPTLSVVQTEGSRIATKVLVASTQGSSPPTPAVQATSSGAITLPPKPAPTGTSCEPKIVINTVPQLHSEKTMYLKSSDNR

T2: mouse SEMA4D, full length, on CHO-K1 cells (CHO-K1 mSEMA4D) (mouse, UniProt O09126 24-861)
T2 construct: whole, on cells; also called murine SEMA4D recombinant cells
T2 sequence (looked up): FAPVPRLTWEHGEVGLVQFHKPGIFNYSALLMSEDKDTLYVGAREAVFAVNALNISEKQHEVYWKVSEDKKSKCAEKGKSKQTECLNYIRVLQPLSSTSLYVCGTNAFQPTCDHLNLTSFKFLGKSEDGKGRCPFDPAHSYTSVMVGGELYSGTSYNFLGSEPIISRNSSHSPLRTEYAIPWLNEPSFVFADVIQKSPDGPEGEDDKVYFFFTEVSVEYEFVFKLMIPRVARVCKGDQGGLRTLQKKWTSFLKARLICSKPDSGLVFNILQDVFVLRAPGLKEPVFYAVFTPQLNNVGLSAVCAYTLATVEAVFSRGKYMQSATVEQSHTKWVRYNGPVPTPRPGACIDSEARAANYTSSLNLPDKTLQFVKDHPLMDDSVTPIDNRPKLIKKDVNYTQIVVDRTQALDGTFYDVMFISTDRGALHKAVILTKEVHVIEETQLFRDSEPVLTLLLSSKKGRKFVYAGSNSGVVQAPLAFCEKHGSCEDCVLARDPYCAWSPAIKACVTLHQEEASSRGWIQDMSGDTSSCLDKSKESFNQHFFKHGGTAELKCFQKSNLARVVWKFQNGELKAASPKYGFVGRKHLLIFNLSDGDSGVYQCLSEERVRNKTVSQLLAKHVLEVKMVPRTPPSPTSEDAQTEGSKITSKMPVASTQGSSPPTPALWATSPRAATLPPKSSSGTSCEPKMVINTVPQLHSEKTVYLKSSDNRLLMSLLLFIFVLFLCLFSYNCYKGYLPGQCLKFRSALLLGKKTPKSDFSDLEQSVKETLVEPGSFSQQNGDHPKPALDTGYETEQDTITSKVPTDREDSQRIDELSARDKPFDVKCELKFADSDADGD

B1: 32C8F10 (antibody, V domains shown)
VH: EVQLQQSGAELVRPGASVKLSCTASGFNIKDEYIHWVKQRPEQGLEWIGWIDPANGHTEYASRFQAKATITADTSSNTAYLQLSSLTSEDTAVYYCTTGDYDGFAYWGQGTLVTVST
VL: QIVLTQSPAIMSASPGEKVTISCSARSSVSYMYWYQQKPGSSPKPWIYRTSNLASGVPARFSGSGSGTSYSLTISSMEAEDAATYYCQHYHTYPYTFGGGTKLEIK
notes: Mouse monoclonal antibody purified from hybridoma supernatant on protein A
B2: 31C11G2 (antibody, V domains shown)
VH: B1 VH with A105V
VL: B1 VL with S22F
notes: as for B1
B3: 31G10C5 (antibody, V domains shown)
VH: B1 VH with E32D, T58I, R63N, A105T
VL: B1 VL
notes: as for B1
B4: 37C4F7 (antibody, V domains shown)
VH: EFQLQQSGPEVVKPGASVKISCKASGYSFTDYNMNWMKQSKGKSLEWIGVINPNYGTTTYNQNFKGKATLTVDQSSSTAYMQLNSLTSEDSAVYYCARDMYYVYAYYTMDYWGQGTSVTVSS
VL: DVVMTQTPLSLPVSLGDQASISCRSSQSLVHSNGHTYLHWYLQRPGQSPTLLIYKVSNRFSGVPDRFSGSGSGTDFTLKISRVEAEDLGVYFCSQGTHVPWTFGGGTKLEIK
notes: as for B1
B5: 38H2E3 (antibody, V domains shown)
VH: B4 VH with N52S, N54D, G66D, R98K, Q114H
VL: B4 VL with F67V, W101R
notes: as for B1
B6: 37F11F9 (antibody, V domains shown)
VH: EVQLQQSGPVLVKPGASVKMSCKASGYTFTDYYMNWVKQSHGKSLEWIGLINPYSGGSTFNQKFKAKATLTVDKSSSSAYMDLNSLTSEDSAVYYCARVGDGYYGVTHGMDYWGQGTSVTVSS
VL: DIVMTPSQKFMSTTVGDRVSITCKASQNVGTAVAWYQQKPGQSPTILIYSASNRYTGVPDRFTGSGSGTDFTLTISNMKSEDLADYFCQQYYIYPFTFAAGTKLELK
notes: as for B1
B7: 42B7G2 (antibody, V domains shown)
VH: QVQLQQSGAELARPGASVKLSCKASGYTFTDYGISWVKQRTGQGLEWIGEIYLRNDNSYYNEKFKGKATLTADKSSNTAYMELRSLTSEDSAVYFCARWGDHGNNYEDAMDYWGQGTSVTVSS
VL: DIVLTQSPASLAMSLGKRATISCRASESVSIIGSNLIHWYQQKPGQPPKLLIYHASNLETGVPARFSGSGSRTDFTLTIDPVEEDDVAIYYCLQSRKVPYTFGGGTKLEIK
notes: as for B1

The binders below were run against T1, hSEMA4D ECD-His (His-tagged human …) (assay: ELISA, coated hSEMA4D ECD-His; Ab 0.00427 nM).
Protocol: (§1) First, hSEMA4D ECD-His was diluted with PBS to a final concentration of 1.0 μg/mL, and then was added to a 96-well ELISA plate, 100 μL per well, sealed with plastic film and incubated overnight at 4° C. On the next day, the plate was washed with a plate washing solution, that is, PBS buffer containing 0.05% (v/v) Tween20, for 4 times, and added with blocking solution, that is, PBS buffer containing 0.05% (v/v) Tween20 and 2% (w/w) BSA, blocked at 37° C. for 1 hour. The blocking solution was poured out and the plate was washed 4 times with the plate washing solution. 100 μL of the purified leading antibodies obtained in Examples 1 and 2 was added to each well. After incubation at 37° C. for 1 hour, the plate was washed 4 times with a plate washing solution. 100 μL of horseradish peroxidase (HRP) labeled secondary antibody (purchased from Sigma) was added at a dilution of 1:10000 to each well, and the plate was incubated at 37° C. for 1 hour, and washed 4 times with a plate washing solution. 100 μL TMB substrate was added to each well, and the plate was incubated at room temperature for 5 minutes, and added with 100 μL stop solution (1.0N HCl) to each well. A microplate reader (SpectraMax M5e, purchased from Molecular Device) was used to read the A450 nm value. […] Wherein, the data in the table was the OD450 nm value.
Work on B1 yielded an OD450 nm of 0.0685. B2 gave an OD450 nm of 0.0939. B3 was tested, and the OD450 nm was 0.0915. B4 showed an OD450 nm of 0.0623. With B5 the OD450 nm was 0.0744. For B6, the OD450 nm was 0.0638. For B7, the OD450 nm was 0.0851.

Each binder was assayed against T2, mouse SEMA4D, full length, on CHO-K1 … (assay: FACS, CHO-K1 mSEMA4D cells; Ab 0.0213 nM).
Protocol: (§2) After the cells were counted, they were diluted with PBS to 2×10⁶ cells per milliliter. After washing, 100 μL of diluted and purified leading antibodies was added to each well and the plate was incubated for 1 hour on ice. […] Cells were washed 2 times by centrifugation with FACS buffer. The cells were suspended with 200 μL of FACS buffer, FACS (FACS Verse, purchased from BD) was used to detect and analyze the results.
In the case of B1, the MFI is reported as 29.5. In the case of B2, the MFI is reported as 30.8. Work on B3 yielded an MFI of 29.6. For B4, the MFI was 30.8. B5 gave an MFI of 30.1. Work on B6 yielded an MFI of 30.5. B7 was tested, and the MFI was 31.6.

These binders were tested against T3, monkey SEMA4D, full length, on CHO-K1 cells (CHO-K1 cSEMA4D) (monkey) (assay: FACS, CHO-K1 cSEMA4D cells; Ab 0.534 nM).
T3 construct: whole, on cells; also called monkey SEMA4D recombinant cells
Protocol: as §2
Binder B1 has an MFI of 2930. B2 showed an MFI of 2980. In the case of B3, the MFI is reported as 3490. B4 showed an MFI of 760. For B5, the MFI was 601. B6 showed an MFI of 925. For B7, the MFI was 1690.

These binders were tested against T3, monkey SEMA4D, full length, on CHO-K1 … (assay: FACS, CHO-K1 cSEMA4D cells; Ab 0.0213 nM).
Protocol: as §2
For B1, the MFI was 291. Work on B2 yielded an MFI of 422. In the case of B3, the MFI is reported as 414. B4 gave an MFI of 79.4. Work on B5 yielded an MFI of 69.1. In the case of B6, the MFI is reported as 103. B7 showed an MFI of 216.

Each binder was assayed against T1, hSEMA4D ECD-His (His-tagged human …) (assay: ELISA, coated hSEMA4D ECD-His; Ab 0.000085 nM).
Protocol: as §1
B1 was tested, and the OD450 nm was 0.0699. For B2, the OD450 nm was 0.0753. Binder B3 has an OD450 nm of 0.0694. In the case of B4, the OD450 nm is reported as 0.0661. Work on B5 yielded an OD450 nm of 0.0635. For B6, the OD450 nm was 0.0658. B7 gave an OD450 nm of 0.0753.

These binders were tested against T1, hSEMA4D ECD-His (His-tagged human …) (assay: ELISA, coated hSEMA4D ECD-His; Ab 0.267 nM).
Protocol: as §1
With B1 the OD450 nm was 1.28. Binder B2 has an OD450 nm of 1.47. In the case of B3, the OD450 nm is reported as 1.15. With B4 the OD450 nm was 0.41. B5 showed an OD450 nm of 0.531. For B6, the OD450 nm was 0.89. In the case of B7, the OD450 nm is reported as 1.4.

Reference: US20220073608A1 (JIANGSU HUAIYU PHARMACEUTICAL, published 2022)
